Measured values from publication PMC10942344 (bioRxiv, 2024).

Legend:
Assay in all cases: SPR
[1] = target: recombinant GP38 of CCHFV 200406546-Turkey (CCHFV 200406546-Turkey, UniProt A0A0U2SQZ0, strain)
[2] = target: recombinant GP38 of CCHFV Oman-199809166 (CCHFV Oman-199809166, UniProt A0A0U3C6Q7, strain)
[3] = target: recombinant GP38 of CCHFV Kosova-Hoti (CCHFV Kosova-Hoti, UniProt B2BSL7, strain)

Measured: Kd

B1: ADI-58048 IgG (antibody, V domains shown)
VH: QLQLQESGPGLVKPSETLSLTCTVSGGSITTSHYYWGWIRQPPGKGLEWVGSMYYSGGIYYNPSLKGRVTISVDTSKNQFSLKLSSVTAADTAVYYCALADAPDDAFDIWGQGTMVTVSS
VL: DIQMTQSPSSLSAFVGDRVTITCRASQSISSYLNWYQQKPGKAPKLLIYAASTLQSGVPSRFSGSGSGTDFTLTISSLQSEDFATYYCQESYSIPFTFGPGTKVDIK
< 0.398 nM: [1] | [2] | [3]
